# Reference: patent US20250282887A1 (Amgen, published 2025)
# T1: huMAGEB2(1-319), biotinylated full length MAGEB2 protein (human, UniProt O15479 1-319, biotinylated with recombinant BirA (site not stated))
# T1 construct: Expressed in E. coli from pET23; N-terminal 6xHis tag removed with caspase 3; also called Biotinylated MAGEB2 full length protein
# T1 sequence: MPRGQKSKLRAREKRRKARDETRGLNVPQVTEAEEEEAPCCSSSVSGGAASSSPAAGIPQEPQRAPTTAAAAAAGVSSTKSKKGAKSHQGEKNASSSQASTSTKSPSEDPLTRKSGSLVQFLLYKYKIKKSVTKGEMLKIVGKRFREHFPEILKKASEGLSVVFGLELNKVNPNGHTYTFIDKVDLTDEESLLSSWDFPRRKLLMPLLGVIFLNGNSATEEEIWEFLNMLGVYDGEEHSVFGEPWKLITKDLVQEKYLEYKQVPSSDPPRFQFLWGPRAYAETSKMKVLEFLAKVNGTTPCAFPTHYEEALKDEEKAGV
# T2: Human MAGEB2 (Melanoma-associated antigen B2) (human, UniProt O15479 1-319)
# T2 construct: Intracellular antigen detected by IHC in FFPE material: CHO cells transfected with human MAGEB2 (mCherry vector with Myc/DDK tags, or ORF without tags)
# T2 sequence: T1 sequence
# B1: 1G24 (antibody, IgG1, V domains shown)
# VH: QSLEESGGGLVQPEGSLTLTCTASGFTLNNYYICWVRQAPGKGLEWIACIDNANGRTYYANWAKGRFTISKTSSTTVTLQMTSLTAADTATYFCARSLATPLWGPGTLVTVSS
# VL: DIVMTQTPASVEAAVGGTVTIKCQASESIGNALAWYQQKPGQPPSLLIYRASTLASGIPSRVKGSGSGTQFTLTISDLECADAATYYCQSYDDSSSSSFFYAFGGGTEVVVK
# notes: Rabbit monoclonal IgG1
# What was measured:
# [1] = target: T1, huMAGEB2(1-319), biotinylated full …; assay: limited antigen FACS; biotinylated full length MAGEB2 on LumAvidin beads; B-cell supernatant
# Experimental: Biotinylated MAGEB2 full length protein was titrated 1:2 across 6 different limited antigen concentrations and then coated onto six different LumAvidin beads in FACS buffer [1×PBS+2% fetal bovine serum (Hyclone Cat No. SH30396.03)] for 30 minutes at room temperature in the dark. The beads were then washed twice in FACS buffer by centrifugation for 2 min at 3500 RPM. The coated beads were resuspended and pooled together (6-plex) and added to the rabbit B-cell supernatants at a 1:2 final dilution onto Corning 3897 96 well V-bottom polystyrene plates and incubated overnight at room temperature in the dark. […] A final wash was done before plates were read on the iQue FACS machine with Intellicyte autosampler to obtain flow cytometry measurements according to the manufacturer's recommendations; data analysis was done on Intellicyt ForeCyt® Enterprise Client Edition 6.2 (R3).
# [2] = target: T2, Human MAGEB2 (Melanoma-associated …); assay: IHC, antibody supernatant on FFPE CHO cells transfected with human MAGEB2
# Description: Negative control cells included parental Chinese hamster ovary (CHO) cells, CHO cells stably transfected with mCherry Vector Control (minus Myc/DDK tags), CHO cells stably transfected with mCherry-human DCAF4L2 (plus Myc/DDK tags). The cross-reactivity control cells included CHO cells transfected with mCherry Vector Control (plus Myc/DDK tags) with one of the human MAGE-B or MAGE-A family members (MAGEA1, MAGEA2, MAGEA3, MAGEA4, MAGEA5, MAGEA6, MAGEA8, MAGEA9, MAGEA11, MAGEA12, MAGEB1, MAGEB3, MAGEB4, MAGEB5, MAGEB6, MAGEB10, MAGEB16, MAGEB17, MAGEB18). Positive control cell lines included CHO cells transfected with mCherry Vector (plus Myc/DDK tags) with human MAGE-B2 or CHO cells transfected with mCherry Vector (open reading frame (ORF); minus Myc/DDK tags) with human MAGEB2, and thirteen human cancer cell lines with known endogenous RNA expression level of MAGEB2 (U266B1, T98G, KMM-1, U20S, CFPAC-1, SCaBER, UACC-257, CFPAC-1, VMRC-LCD, NCI-H1703, UM-UC-3, NCI-H1395, NCIH82).
# FFPE samples were sectioned at 4 μm and mounted on positive charged glass slides. After mounting, paraffin sections were air-dried at room temperature. FFPE TMA samples were received as freshly sectioned and mounted on glass slides. The fully automated IHC assay was performed on a Discovery Ultra Stainer (Ventana Medical Systems, Tucson, AZ) using Ventana Anti-Rabbit HQ (cat #760-4815), Ventana Anti-HQ HRP (cat #760-4820), and Ventana Antibody Diluent with Casein (cat #760-219) (Ventana Medical Systems, Tucson, AZ). The slides were baked on the Discovery Ultra Stainer at 60° C. for 8 minutes, de-paraffinized with Ventana Discovery wash (cat #950-510) for 3 cycles (8 minutes each) at 69° C., and underwent cell conditioning (target retrieval) at 95° C. for 16 minutes (for cell arrays) or 32 minutes (tissues or TMAs) in CC1 buffer (cat #950-500). Following this, slides were incubated with Background Sniper (cat #BS966M, Biocare Medical, Pacheco, CA) in a Ventana Option Prep kit (cat #771-751) for 28 minutes, incubated with CM inhibitor (a part of the Ventana DAB kit cat #760-159) for 12 minutes, and incubated for 1 h at RT with MAGE-B2 antibody diluted with Ventana diluent with Casein in a Ventana Prep kit (cat #770-001) (working concentration at 0.1 μg/ml for cell pellet, or 1-5 ug/ml for tissues) or with a matched concentration of isotype control Rabbit IgG1 antibody.
binder,measurement,setting,value
B1,binding result,[1],binds
same,binding result,[2],binds
